Assay results from publication PMC4161306, “Regulation of Arabidopsis Flowering by the Histone Mark Readers MRG1/2 via Interaction with CONSTANS to Modulate FT Expression” (PLoS Genetics, 2014).

How the values were obtained:
[1] = system: MRG2; assay: GST pull-down assay, His-tagged MRG2; type: binding, Arabidopsis; settings: in vitro, purified proteins from E. coli, Figure 5B
Procedure: (§1) MRG2 and MRG2C (442–984) cDNA were amplified with primers MRG2-1/MRG2-10 and MRG2-9/MRG2-10, respectively, and then cloned into pET-30a vector (Novagen, www.novagen.com). The resulting constructs and pET-30a-MRG2N were used for purification of His-tagged MRG2, MRG2C, and MRG2N proteins. CO cDNA was amplified using primers CO-1/CO-2, and then cloned into pGEX-4T-1 vector for purification of GST-fused CO proteins. Pulldown experiments were performed according to a previously described protocol.

[2] = system: CO; assay: Bimolecular fluorescence complementation (BiFC) in tobacco leaf cells; type: cell-based, Arabidopsis; settings: split YFP, Nicotiana benthamiana leaves, 2–3 days after infiltration, Figure 5C
Procedure: BiFC was performed as described by Sun et al.. For BiFC assays, MRG2C cDNA was amplified using primers MRG2-11/MRG2-12, and then cloned into pXY103 and pXY106 vectors. CO cDNA was amplified by primers CO-3/CO-4, and then cloned into a pXY104 vector. Leaves of 4- to 8-week-old Nicotiana benthamiana plants were co-infiltrated with Agrobacterium tumefaciens strain […] carrying transgene constructs. Localization of BiFC fluorescence was observed 2–3 days after infiltration using a confocal laser scanning microscope (LSM 710, ZEISS, Germany).

[3] = system: CO; assay: Pull-down truncation analysis of MRG2 with GST-fused CO; type: binding, Arabidopsis; settings: in vitro pull-down, Figure 5B
Procedure: as §1

Molecule | pull-down of His-tagged MRG2 [1] | interaction with CO in vivo [2] | binding to CO [3]
GST-fused CO: GST-fused CONSTANS protein purified from E. coli (protein, left off: GST, end not stated, kept, GST-fused CONSTANS protein purified from E. coli) MLKQESNDIGSGENNRARPCDTCRSNACTVYCHADSAYLCMSCDAQVHSANRVASRHKRVRVCESCERAPAAFLCEADDASLCTACDSEVHSANPLARRHQRVPILPISGNSFSSMTTTHHQSEKTMTDPEKRLVVDQEEGEEGDKDAKEVASWLFPNSDKNNNNQNNGLLFSDEYLNLVDYNSSMDYKFTGEYSQHQQNCSVPQTSYGGDRVVPLKLEESRGHQCHNQQNFQFNIKYGSSGTHYNDNGSINHNAYISSMETGVVPESTACVTTASHPRTPKGTVEQQPDPASQMITVTQLSPMDREARVLRYREKRKTRKFEKTIRYASRKAYAEIRPRVNGRFAKREIEAEEQGFNTMLMYNTGYGIVPSF | could pull-down MRG2 | – | –
MRG2: Arabidopsis Morf Related Gene group protein MRG2 (protein, UniProt Q4V3E2 1-327, looked up) Protein MRG2: MGSPNAAAETDLTTDDFIGDTRRDSGSDTETNTDCDGEDLPLLLLPAPPGHFEEGERVLAKHSDCFYEAKVLKVEFKDNEWKYFVHYIGWNKSWDEWIRLDCLLKHSDENIEKQKEQGLKQQGIKSAMAWKVSKMKPRSPNVARGRKRKQDSVDTEKNVLPSDNLLSFNIPPALRKQLLDDFEFVTQMQKLVQLPRSPNVDGILKKYIDSQMKKHGRVTDSLEEILKGLRCYFDKALPVMLLYNNERKQYEESVSGGVSPSTVYGAEHLLRLFVKLPELLVHVNMAEETLKELQDNFVDILRFLRKNQSVLFVSTYKAVEEMEKKEG | – | interacted in vivo | –
MRG2N: chromodomain of MRG2, cDNA 1–369 (protein, left off: His tag, N-terminal, kept) MGSPNAAAETDLTTDDFIGDTRRDSGSDTETNTDCDGEDLPLLLLPAPPGHFEEGERVLAKHSDCFYEAKVLKVEFKDNEWKYFVHYIGWNKSWDEWIRLDCLLKHSDENIEKQKEQGLKQQG | – | – | not
MRG2C: MRG domain of MRG2, cDNA 442–984 (protein, left off: His tag, end not stated, kept) RKQDSVDTEKNVLPSDNLLSFNIPPALRKQLLDDFEFVTQMQKLVQLPRSPNVDGILKKYIDSQMKKHGRVTDSLEEILKGLRCYFDKALPVMLLYNNERKQYEESVSGGVSPSTVYGAEHLLRLFVKLPELLVHVNMAEETLKELQDNFVDILRFLRKNQSVLFVSTYKAVEEMEKKEG | – | interacted in vivo | contributed to binding to CO
